Results as given in patent US20210163606A1 (ATYR PHARMA, published 2021).

Biological target: T1, human NRP2 variant 2 (hNRP2), untagged, on Expi293 cells (Human, UniProt O60462 23-931)
T1 construct: Transcript NM_003872 / NP_003863.2; also called Expi293-hNRP2 clonal cells; Human NRP2a (version 2)
T1 sequence: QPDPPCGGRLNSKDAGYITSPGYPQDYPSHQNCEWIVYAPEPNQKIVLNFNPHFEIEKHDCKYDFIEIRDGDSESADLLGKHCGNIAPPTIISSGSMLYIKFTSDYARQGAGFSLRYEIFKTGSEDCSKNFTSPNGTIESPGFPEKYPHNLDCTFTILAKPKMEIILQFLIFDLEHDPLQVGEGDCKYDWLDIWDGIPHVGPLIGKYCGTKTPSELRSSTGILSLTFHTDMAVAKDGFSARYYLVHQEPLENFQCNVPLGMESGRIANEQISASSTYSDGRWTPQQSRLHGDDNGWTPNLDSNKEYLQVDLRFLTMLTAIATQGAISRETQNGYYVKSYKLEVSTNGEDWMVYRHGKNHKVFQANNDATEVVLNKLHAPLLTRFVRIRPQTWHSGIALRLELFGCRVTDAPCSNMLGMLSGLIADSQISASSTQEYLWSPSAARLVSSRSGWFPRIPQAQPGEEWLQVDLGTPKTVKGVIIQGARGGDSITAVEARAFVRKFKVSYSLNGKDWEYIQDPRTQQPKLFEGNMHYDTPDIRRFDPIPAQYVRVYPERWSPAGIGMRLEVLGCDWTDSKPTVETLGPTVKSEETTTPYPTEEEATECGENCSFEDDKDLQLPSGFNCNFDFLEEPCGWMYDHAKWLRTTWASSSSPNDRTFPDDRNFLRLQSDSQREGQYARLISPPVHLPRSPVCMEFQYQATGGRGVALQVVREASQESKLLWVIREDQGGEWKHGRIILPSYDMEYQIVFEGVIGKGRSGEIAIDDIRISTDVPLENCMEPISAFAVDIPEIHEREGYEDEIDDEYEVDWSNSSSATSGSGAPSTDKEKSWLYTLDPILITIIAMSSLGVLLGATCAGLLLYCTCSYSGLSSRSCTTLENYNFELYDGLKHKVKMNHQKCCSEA
Test: flow cytometry on Expi293-hNRP2 clonal cells
Method: Expi293-hNRP2 clonal cells were collected by centrifugation at 300 g for 5 minutes, and washed twice by DPBS (with calcium and magnesium, ThermoFisher Cat #14040133). Washed cells were added to a 96-well V-bottom plate (ThermoFisher Cat #1424572) at 100,000 cells/well in […] of DPBS added with Zombie Violet viability stain (Biolegend Cat #423114, diluted at 1:500). From this step on, cells were protected from light. Cells were kept at room temperature for 10 min and pelleted down at 300 g for 5 minutes at 4° C. Supernatants containing Zombie Violet were discarded, and without washing, 30 uL of antibodies diluted in the flow wash buffer (FWB, DPBS plus 2% FBS and 0.1% sodium azide to inhibit receptor internalization) were added to the cells. For anti-NRP2 antibody staining on Expi293-hNRP2 clonal cells, in-house human anti-NRP2 antibodies were tested at final concentrations of 0.006-100 nM at 4-fold dilutions. […] Binding was allowed to proceed on ice for 40-60 minutes. Cells were then pelleted at 300 g for 5 minutes at 4° C., supernatants removed, and cells washed twice by adding 150 μL of FWB and centrifuging the cells again in the same conditions. To detect a-NRP2 binding on the cell surface, Cy3-conjugated goat anti-human IgG Fc (Jackson ImmunoResearch Cat #109165098) was added to the cells at a final concentration of 3 μg/mL in 30 μL of FWB. After 30-40 minutes of incubation on ice, cells were pelleted at 300 g for 5 minutes at 4° C. and supernatants removed, and the cells were washed twice as described previously. Cells were then resuspended in FWB before acquisition on the Cytoflex. Gains were set based on staining controls. Cells were collected with typically more than 10,000 events. Cells were then analyzed on FlowJo analysis software by excluding dead cells and gating singlets. The statistical analysis was performed using GraphPad Prism. A four-parameter variable-slope curve was fitted to the data ([agonist] vs. response) using non-linear regression, and the EC₅₀ and r2 for each curve was determined.
The EC₅₀ of four anti-NRP2 antibodies directed against different domains of NRP2, were measured for binding to Expi293-hNRP2 clonal cells (see Table E1 and FIG. 3).

EC50: 0.09 nM
B1: aNRP2-10v10 (antibody, V domains shown)
VH: EVQLVQSGAEVKKPGATVKISCKVSGFNIKDYYVHWVQQAPGKGLEWMGRIDVEDDETKYAPKFQGRVTITADTSTDTAYMELSSLRSEDTAVYYCATPIYGAREAWFAYWGQGTLVTVSS
VL: DIQMTQSPSSLSASVGDRVTITCTASSSVSSSYLHWYQQKPGKAPKLLIYRTSNLASGVPSRFSGSGSGTDFTLTISSLQPEDFATYYCHQYYRSPPTFGGGTKVEIK
